For assay [1], the target named is T1, MucB (pET22b-MucB-6His) (P. aeruginosa, UniProt P38108 22-316).
T1 construct: source: E. coli BL21 (DE3), purified (Ni–NTA, Superdex-75)
T1 sequence: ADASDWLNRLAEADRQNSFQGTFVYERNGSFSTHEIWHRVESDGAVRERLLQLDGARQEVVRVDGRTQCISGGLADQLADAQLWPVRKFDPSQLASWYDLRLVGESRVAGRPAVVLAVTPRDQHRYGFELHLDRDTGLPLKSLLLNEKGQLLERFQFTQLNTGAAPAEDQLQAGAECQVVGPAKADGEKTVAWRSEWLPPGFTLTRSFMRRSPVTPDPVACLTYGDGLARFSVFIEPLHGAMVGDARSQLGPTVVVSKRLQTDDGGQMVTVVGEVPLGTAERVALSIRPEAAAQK
In words: ITC; MucB (20 µM) in the sample cell titrated with MucA^peri (200 µM), 19 injections; 25 mM Tris–HCl (pH 7.5), 150 mM NaCl, 25 °C. The settings on record: both partners purified. For orientation: Isothermal titration calorimetry measures the heat released or taken up as one component is titrated into another.

Assay [2] addresses T2, MucB (pET22b-MucB-6His) (P. aeruginosa, UniProt P38108 22-316).
T2 chain: T1 sequence
Briefly: ITC.

The record followed here is article PMC7400510, “Molecular basis of the lipid-induced MucA-MucB dissociation in Pseudomonas aeruginosa” (Communications Biology, 2020).

Broadly, the Kd is the constant that tells how readily two partners part at equilibrium. A lower Kd goes with tighter binding.

B1: periplasmic region of MucA (MucA^peri: residues 106–194), with His-tag (domain or fragment)
chain: YNQNDALPQMAQQGTTPQIALPQVKGPAVLAGYSEEQGAPQVITNSSSSDTRWHEQRLPIYLRQHVQQSAVSGTESALPYARAASLENR
notes: also called periplasmic domain of MucA; source: E. coli BL21 (DE3), purified (Ni–NTA, Superdex-75); not shown: His6, C-terminal, kept
In turn, B1 gave a Kd in the assay with MucB (pET22b-MucB-6His) [1] of 1.5 µM. The Ka with MucB (pET22b-MucB-6His) [2] is 633000 M⁻¹.
